Laboratory results published in the DeepSol protein solubility set.

Experiment: soluble on expression in E. coli; label from the status in PepcDB or PDB records

Soluble on expression in E. coli, soluble:
MCNTPTYCDLGKAAKDVFNKGYGFGMVKIDLKTKSCSGVEFSTSGHAYTDTGKASGNLETKYKVCNYGLTFTQKWNTDNTLGTEISWENKLAEGLKLTLDTIFVPNTGKKSGKLKASYKRDCFSVGSNVDIDFSGPTIYGWAVLAFEGWLAGYQMSFDTAKSKLSQNNFALGYKAADFQLHTHVNDGTEFGGSIYQKVNEKIETSINLAWTAGSNNTRFGIAAKYMLDCRTSLSAKVNNASLIGLGYTQTLRPGVKLTLSALIDGKNFSAGGHKVGLGFELEALEHHHHHH
MCVRLENENFKAELSESGAELTSLKSKNTDNEYIWTANSSYWGRHAPILFPIVGKVKDNKYRIADKVYNLSQHGFARDMEFEVEDNASDRAVFKLVWNDETLEKYPYKFELRVIYVLKDSTVDVTYNVKNVDDKDIFFSIGAHPGFNCPVIGKQSENDELQFEDYYIEFEKRETTGVVKLNSSNLLSRNTSPFLYASNILNLSEKLFKQGALILKDLDSTSISLKNDKNTTSVTVSFEGFPYVGLWSKPEGAPFVCIEPWFGHADYEDFNGDFREKEDGLKLEVGKEFECTYSITIGELEHHHHHH
MDAEPSTPKQTEQEPSALSSADQVTNEPMESIIRPSILDSNSKMGNKQEDEDRLKKDSGPSTSNQAEQDPSKSADQFVTLSRPTTLGFSPTFESLQNNQEDTKQSTRLLNEDQDRDTLLKKHVDSLYALSERCIIFAGVLNQFLPTEKRRSKTDFLTENMLAALLSELITQIEVSDLRAKANPAVGKQEGDRCKELVSEKSCIEESLRNFREFAKEDSKTDTSSKLDPPNLNTLLYQLEGIEKIMNSIQTTLEANNFNDSENGSNEVTPNKSQLEGDSLKEVPSEESQIVDSAHDGDSRKEGESEVSEMDNVALDKDLPEETETDKTLVDEIPLEDLDKEPLDENPLEGSPGPAQNMTERNIRKRPNSRHDNVSPSKLQKV
MDDQGCPRCKTTKYRNPSLKLMVNVCGHTLCESCVDLLFVRGAGNCPECGTPLRKSNFRVQLFEDPTVDKEVEIRKKVLKIYNKREEDFPSLREYNDFLEEVEEIVFNLTNNVDLDNTKKKMEIYQKENKDVIQKNKLKLTREQEELEEALEVERQENEQRRLFIQKEEQLQQILKRKNKQAFLDELESSDLPVALLLAQHKDRSTQLEMQLEKPKPVKPVTFSTGIKMGQHISLAPIHKLEEALYEYQPLQIETYGPHVPELEMLGRLGYLNHVRAASPQDLAGGYTSSLACHRALQDAFSGLFWQPS
MDEYQQTIRALSDRIVVAQTPIRILDAVKWDDTVRKNFLAAKGKALPAVDRAYYENRPLGFDSVALKQEFQNIERDVTRQLGQFNPVGQIMRRMCREYRMVVRMLEARGTPDFGLISQELYGAASDAFHAGDPTLADLGLMLSDYLNNIAGRGDLKDEPKILTAKDAVSLLQSRLNRVFGEAEETIRVFESDGIVADAAAGADYIKIRTDAMFNERDVRALEVHEGLVHVGTTLNGQNQPICTFLSKGPPSSTVTQEGLAILMEVIAFASYPSRLRKLTNRTRAIHMAEQGADFLQVFEFYREQGFGMSESYGNASRVFRGSVPDGLPFTKDLSYLKGFIMVYNYIQLAVRKGKLEQVPLLFCGKTTLEDMRTLRQLVDEGLVVAPKYLPEQFRDMNALSAWMCFSNFLNHLSLDRIEADYSNILLEHHHHHH
MDFKDILRQLSERIEKLRDNLQTEEATKNALIMPFIQAMGYDVFNPLEVIPEFTCDIGTKKGEKIDYAIMRDNEPIILIECKHWRDTLTLADNQLLRYFHVSSAKFGMLTNGIIYRFYTDLDQANKMDEKPFLEVNMLDLRDNQIEELKQFHKSYFDVDKILSTASELKYMKELKDLILAEMNEPSEQFVRMLAKQVYDGIITAKIFEQFKDLTQKSFKSVINDLITARFKTVMDKSKEVAASEEQSQEQDDSNEPLVVTTEAEMEAYMIVKGILRKYINIDRIASRDTQSYFSVLLDDNNRKPICRFYFNTANKYLATFEEGKKEVKTLLNSLDDLFMHEKSIAKSLALYVDTEESALIVKSKE

Soluble on expression in E. coli, not soluble:
MCGITGWVDWKEDLSNQHVILKKMANRIQHRGPDAEGFWFSPRAAFAHRRLIVIDPEGGAQPKTFRAGDYTYALTYNGEIYNFRELREQLQKCGHTFETHSDTEVLLHAYLEWKEDCVQHLNGIFAFALWDDQKQRLFLARDHLGVKPLFYTERNDSIIFGSEIKALLAHPSVPAEIDADGINEIFGLGLFRTPGCGVFKHIEEVRAGHSITFTRDKKVVTKYWNLESKVHTDSIEDTSSHILSILQDTVKRQLIADVPLVCMLSGGLDSSGITALAGKEFAAENKTLHTYSVDFVNSAKDFELTFARTGLDAPWVKRVSEHVGTSHHDIIVNAEELANHLFVPLRAKDLPSAGEMETSLYLLFCEMKKDATVALSGESADEVFGGYPWFHQEELLYVDKFPWLTNWKNTSPLLLHEISNQCNLENYIDTRFQEAILEVPTLEGESKKSAKQRQMFYLFLTRFLPFLLDRKDRMSMAVGFEVRVPFCDYRLVEYLWNVPFNIKSIDNIEKGILRRALKPALPDDVRNRRKSAYPTSQDPQYLQTIRHLSLDMCSNKNNPIFSLINHSTLLAIADGSNKEINNFEARSAMEYMLQVNEWLKTYHIHIA
MCGRIAQKSAPEDYVEILWPNARLIFDDVAGPRYNIPPGTRPLTMHRLVDQAEALARLPWGYKPHGSRFFMVNAKLETIERHGWPWKLMIGVGRILVPADGWYEWRALDSGPKPAKQSYYIHGDAPLLFAGLSAWRRGAELDEAHGFAIVTNDALGGMVDVHDRRPVALPPELAREWVDPATPVARAKEILRAGLPETAFSWYPVRQEVGSSKYQLPDAVDPLLEHHHHHH
MCIAIPGKMTAIVDENTATIDMGGICRDVNMALMGGAEESMIGKHFLVHVGYAISEISEEESEETMRLLKIMAGLEEIDSFENESQ
MCIAIPGRIERIDYPIAIVDFKGLKKEVRIDLLENPQIGDYVLVHVGMAIQKVDEEEAKKTWELLERVADETGNQAF
MCMMSKVVSKMKSFLGFDEFEDEDEVMEEEEVMEEEESFAPVLSSKKNGKVVNIHTANTAKLMITKPLVYDDATEICTALKNRKIVVINTTSLELRTAQRLIDFVGGACYALCGELQEVEKGVFIVSPSNVEVSNELKSELSNKGMFNWASKLEHHHHHH
MDCLNIEELTRIIIKEIRDYEEKEGVKSRRKIEVPINVSARHVHLSEEHMEALFGKGYTLTPIRDLMQPGEFAAKETVIIVGPKGILPSVRILGPARKRTQVEVSKTDCYTLGIEAQVRDSGNHEGTPGCIIVGPMGAVKLEEGVIVAMRHVHMPKNLAEKIGIKDKNLLKVEVGEERKLIFENVLARVSEKFVLEMHVDTDEANAAGIKNQAKGYILL
MDCVMKGLNKITCCLLAALLMPCAGHAENEQYGANFNNADIRQFVEIVGQHLGKTILIDPSVQGTISVRSNDTFSQQEYYQFFLSILDLYGYSVITLDNGFLKVVRSANVKTSPGMIADSSRPGVGDELVTRIVPLENVPARDLAPLLRQMMDAGSVGNVVHYEPSNVLILTGRASTINKLIEVIKRVDVIGTEKQQIIHLEYASAEDLAEILNQLISESHGKSQMPALLSAKIVADKRTNSLIISGPEKARQRITSLLKSLDVEESEEGNTRVYYLKYAKATNLVEVLTGVSEKLKDEKGNARKPSSSGAMDNVAITADEQTNSLVITADQSVQEKLATVIARLDIRRAQVLVEAIIVEVQDGNGLNLGVQWANKNVGAQQFTNTGLPIFNAAQGVADYKKNGGITSANPAWDMFSAYNGMAAGFFNGDWGVLLTALASNNKNDILATPSIVTLDNKLASFNVGQDVPVLSGSQTTSGDNVFNTVERKTVGTKLKVTPQVNEGDAVLLEIEQEVSSVDSSSNSTLGPTFNTRTIQNAVLVKTGETVVLGGLLDDFSKEQVSKVPLLGDIPLVGQLFRYTSTERAKRNLMVFIRPTIIRDDDVYRSLSKEKYTRYRQEQQQRIDGKSKALVGSEDLPVLDENTFNSHAPAPSSRLEHHHHHH
MDDLIELEISKTQCIRIYLPCKKEDLDFFDCVTIEYLKEQTEYILYYKDLSGAAIISLKELLEKALNFKLQIENEYKDKGIGYYHSIYTNNIYANKLQTAGSQDLIDPTKDFLVWSTLGPTSIGTFIYNDQDKIYIEISPLYEWFNHIFDDILEEYNEVKDEDASFDDFLNNYKPIDIVAIDRKVAEKWLEFCCEMIEILKANDKKQLK
MDDYKRILITKILKNEVTEALGCTEVGLIGYAVSLCNISDPFSIEKIELTLNNGSFKNAYAVGVPNTKKYGILPAVVGGLLGDHKNKLLVFNGIKYSQKLEDFIKERLKIRVINSPLYCGVKIKDNSGNTFESLIKDNHLNVVIPKINNKLISEINGSEKEEYKNLELLDFLEYIDEIPEEIIQLVEKTIYTNNNLIKGDFLNFGNDCLSNMVNKTTSACNTRMIGENMPAMSVAKSGNMGIMATLPIIAYDYSNEQNQEKLIKSILLSVLVTIYATYKSSYLSSMCGCVSKGGMGAVIGLCYYKNGKNIKKLDSAARTFTANLPGIICDGGKVGCALKLASGCFAAYSSLFVDISYENGIVGKNFKECVENISEISKIMGDLDSDIVKIMSKKEI
MDEEERTSSRGWMREFKYPSNLRDITEEARISLSSVAHFDELLHESSELAWRTNMSPPHRALFTFSKKTDISYVMLFLDYSRDESYCPQEVRIDLGDGTNDWWLKMYRRVDQPKGWVKIPIHDAFGNPLRVMSLQMTIMKNHEKGRDCVVRHFRVLGPFRSRYDSMNRMILGPSAVLEARPGTEPIKDAIMNHYQSMR
MDEIEKNNGEIIIYRTEDGRTQLEVRLENENVWLSQQQMSELFQTSRTNIVEHIKHIFEEGELEENSTCQIFRQVRIEGTRKVERSIPFYNLDMIISLGYRVKSRVATHFRRWATERLKEYLIKGFAMDDQRLKEIGGGGYWYELLNRIRDIRSSEKVLYRQVLDLYATSVDYDPKADESIRFFKIVQNKLHYAAHGHTAAEVIFERADAEKPFMGLATFPGEQPRKEDVLIAKNYLNEKELKILNNLVSGYFDFAEIQAIKRSPMYMSDYIHHLDLILSTTGEQVLQNAGTISHEQAKQKALGEYRKYHVKTLSPVEEAYFDSIKKLTAETKKKKKK
MDFLERLKSLWPDNAKPADFYNKIDMSASGFSRVWKDGAIPTADYLIKIQEVTGCDLNWLLTGQGSPYMNKGQAVEVRTHTDGTATDTLGNP
MDFTIPLQLQSNTPIYLQIYEYIKAEIIQGTISVGTRLPSHRNLASQLNISRITVESAYQQLLAEGYAESKPKRGIFVANFDIDIIPNKKRNAAKKTNNLIEEKFEYDCSQGLIDQNAFPITNWKRALQESILIYENALFAKEDPQGEFALREHISTYLYHSRGVHSSPDQIVIGAGTQPLLWLLLQLLGPTKEYGIENPGFHRIHAIIKSCDRQIHPIPLDEKGIDISSLYNTNSNVAYVTPSHQFPLGIIMPLSRRLELLKWANDCNGYIIEDDYDGEFRYAGKPIPSLQSLDSNERVIYMGTFSKSFLPSLRMGYVVLPPHLLKTYQELHGIFKQTVATIQQLAFANFIQSGNWERHLNRSRTLYKRKHHTLVKSIMKEMGANVQILGEQSGLHIVLCVNNSMNENELIESAKKQSVKLYPLSPYDFVNDLRKESYVLLGFGSIPENKIETLATLLKDAWFPSCKETC
